In article PMC11950179 (Nature Communications, 2025):

Biological target: the molecule itself
Assay: cryo-EM structure

B1: human phosphorylase kinase β subunit (PHKB), phosphorylated (natural protein, UniProt Q93100 1-1093, looked up)
chain: MAGAAGLTAEVSWKVLERRARTKRSGSVYEPLKSINLPRPDNETLWDKLDHYYRIVKSTLLLYQSPTTGLFPTKTCGGDQKAKIQDSLYCAAGAWALALAYRRIDDDKGRTHELEHSAIKCMRGILYCYMRQADKVQQFKQDPRPTTCLHSVFNVHTGDELLSYEEYGHLQINAVSLYLLYLVEMISSGLQIIYNTDEVSFIQNLVFCVERVYRVPDFGVWERGSKYNNGSTELHSSSVGLAKAALEAINGFNLFGNQGCSWSVIFVDLDAHNRNRQTLCSLLPRESRSHNTDAALLPCISYPAFALDDEVLFSQTLDKVVRKLKGKYGFKRFLRDGYRTSLEDPNRCYYKPAEIKLFDGIECEFPIFFLYMMIDGVFRGNPKQVQEYQDLLTPVLHHTTEGYPVVPKYYYVPADFVEYEKNNPGSQKRFPSNCGRDGKLFLWGQALYIIAKLLADELISPKDIDPVQRYVPLKDQRNVSMRFSNQGPLENDLVVHVALIAESQRLQVFLNTYGIQTQTPQQVEPIQIWPQQELVKAYLQLGINEKLGLSGRPDRPIGCLGTSKIYRILGKTVVCYPIIFDLSDFYMSQDVFLLIDDIKNALQFIKQYWKMHGRPLFLVLIREDNIRGSRFNPILDMLAALKKGIIGGVKVHVDRLQTLISGAVVEQLDFLRISDTEELPEFKSFEELEPPKHSKVKRQSSTPSAPELGQQPDVNISEWKDKPTHEILQKLNDCSCLASQAILLGILLKREGPNFITKEGTVSDHIERVYRRAGSQKLWLAVRYGAAFTQKFSSSIAPHITTFLVHGKQVTLGAFGHEEEVISNPLSPRVIQNIIYYKCNTHDEREAVIQQELVIHIGWIISNNPELFSGMLKIRIGWIIHAMEYELQIRGGDKPALDLYQLSPSEVKQLLLDILQPQQNGRCWLNRRQIDGSLNRTPTGFYDRVWQILERTPNGIIVAGKHLPQQPTLSDMTMYEMNFSLLVEDTLGNIDQPQYRQIVVELLMVVSIVLERNPELEFQDKVDLDRLVKEAFNEFQKDQSRLKEIEKQDDMTSFYNTPPLGKRGTCSYLTKAVMNLLLEGEVKPNNDDPCLIS
modifications: phosphorylated by PKAc; phosphoserine at Ser12, Ser27 and Ser701
- binding result: binds
